Target: TGFBR II (UniProt P37173)
Assay: cell-based or functional assay

TGFBR II, sequence (P37173 23-567): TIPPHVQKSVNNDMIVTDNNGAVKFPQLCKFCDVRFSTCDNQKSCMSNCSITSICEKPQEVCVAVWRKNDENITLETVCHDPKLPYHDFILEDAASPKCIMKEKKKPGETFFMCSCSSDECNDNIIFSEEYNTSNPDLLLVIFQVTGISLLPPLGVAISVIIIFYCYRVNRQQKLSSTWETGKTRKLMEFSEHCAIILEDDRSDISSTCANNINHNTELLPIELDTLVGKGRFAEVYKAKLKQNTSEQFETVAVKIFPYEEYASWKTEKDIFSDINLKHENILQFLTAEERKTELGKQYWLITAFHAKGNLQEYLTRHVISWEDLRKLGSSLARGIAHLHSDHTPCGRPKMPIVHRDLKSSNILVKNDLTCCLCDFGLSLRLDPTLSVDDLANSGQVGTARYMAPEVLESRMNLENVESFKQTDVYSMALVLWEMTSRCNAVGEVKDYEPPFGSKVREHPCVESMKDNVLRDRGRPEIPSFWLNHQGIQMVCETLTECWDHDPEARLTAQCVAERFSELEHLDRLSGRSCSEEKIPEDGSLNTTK

TGFβ1 (from UniProt P01137 279-390) (ligand)
decrease in release of IL-2 and IFN-γ by P4-CAR-T cells with 5 ng/ml TGFβ1: 50%

Reference: patent US20220008464A1
